Assay: yeast display, Sf9 membrane polyspecificity reagent, FACS + sequencing; frameworks hold sequencing errors
In short: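 Nanobodies came from a synthetic yeast display library in Saccharomyces cerevisiae BJ5465, induced with galactose for 36–48 hours and stained for 1 hour at 4 °C with 10% biotinylated, detergent-solubilized Sf9 membrane reagent. Cells were enriched on streptavidin microbeads and then FACS-sorted, with low and high (top ~1%) gates set on anti-HA fluorescence for expression and streptavidin fluorescence for reagent binding. Each polyreactivity label reflects the gate a clone came from. Genes were amplified by colony PCR, sequenced by MiSeq 2 × 250 and filtered by CDR length.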
For “QVQLVESGGGLVQAGGSLRLSCAASGFTISVYVMGWYRQAPGKERELVAAISSSGGSTYYADSVKGRFTISRDNAKNTVYLQMNSLKPEDTAVYYCNAAGYWSYAYYWGQGTQVTVSS”, the “polyreactivity (PSR sort gate)” value was “high polyreactivity”.
In the case of “QVQLVESGGGLVQAGGSLRLSCAASGFTIWRYAMGWYRQAPGKERELVAAISRGGSTNYADSVKGRFTISRDNAKKTVYLQMNSLKPEDTAGYYCAASVQYRRLKKFYYWGQGTQVTVSS”, the “polyreactivity (PSR sort gate)” value is reported as “high polyreactivity”.
With “QVQLVESGGGLVQAGGSLRLSCAASGFTIWRYAMGWYRQEPGKERELVAAISRGGSTNYADSVKGRFTISRDNAKNTVYLQMNSLKPEDTAVYYCAASVLYRRLKKFYYWGQGTQVTVSS” the “polyreactivity (PSR sort gate)” value was “high polyreactivity”.
With “QVQLVESGGGLVQAGGSLRLSCAASGFTIYLYTMGWYRQAPGKERELVAAITSSGTRTYYADSVKGRFTISRDNAKNTVYLQMNSLKPEDTAVYYCNAARYGRHLSTYDYWGQGTQVTVSS” the “polyreactivity (PSR sort gate)” value was “high polyreactivity”.
For “QVQLVESGGGLVQAGGSLRLSCAASGFTIYNYAMGWYRQAPGKERELVAAISWSGGSTHYADSVKGRFTISRDNAKNTVYLQMNSLKPEDTAVYYCAKVGVLVYYTYYYWGQGTQVTVSS”, the “polyreactivity (PSR sort gate)” value was “low polyreactivity”.
For “QVQLVESGGGLVQAGGSLRLSCAASGFTIYRYAMGWYRQAPGKERELVATIRRGGSTKYADSVKGRYTISRDNAKNTVYILMISLKPEDTAVYYCNARYYAAPDKYYYWGQGTQVTVSS”, the “polyreactivity (PSR sort gate)” value was “low polyreactivity”.
For “QVQLVESGGGLVQAGGSLRLSCAASGFTIYSYAKAWYRQAPGKERELVAAITRGSSTNYADSVKGRFTISRDNAKNTVYLQMNSLKPEDTAVYYCNRGGWRQYDSWGQGTQVTVSS”, the “polyreactivity (PSR sort gate)” value was “high polyreactivity”.
In the case of “QVQLVESGGGLVQAGGSLRLSCAASGFTLANYAMGWYRQAPGKERELVAAIDYSGGGTYYADSVKGRFTISRDNAKNTVYFQMNSLKPEDTAVYYCAARRWSYYSAKYDYWGQGTQVTVSS”, the “polyreactivity (PSR sort gate)” value is reported as “low polyreactivity”.
For “QVQLVESGGGLVQAGGSLRLSCAASGFTLANYAMGWYRQAPGKERELVAAISSSTGGTYYADSVKGRFTISRDNAKNTVYLQMNSLKPEDTAVYYCAAEYYFHKYVRMYYWGQGTQVTVSS”, the “polyreactivity (PSR sort gate)” value was “high polyreactivity”.
In the case of “QVQLVESGGGLVQAGGSLRLSCAASGFTLARNAMVWYRQAPGKERELVAANSWSGGTTYYADSVKGSFTISRDNAKNTVYLQMNSLKPEDTAVYYCNTASWRAQYYYWGQGNQVTVSS”, the “polyreactivity (PSR sort gate)” value is reported as “high polyreactivity”.
For “QVQLVESGGGLVQAGGSLRLSCAASGFTLAYNAMGWYRQAPGKESELVAAISKSSGSTYYADSVKGRFTISRDNSKNTFYLQMNSLKPEDTAVYYCAAEFYFNGVWYDYWGQGTQVTVSS”, the “polyreactivity (PSR sort gate)” value was “high polyreactivity”.
For “QVQLVESGGGLVQAGGSLRLSCAASGFTLDPYAMGWYRQAPGKERELVAAIRLSGSSTYYADSVKGRFTISRDNAKNTVYLQMNSLKPEDTAVYYCAADGISHWLYRYDYWGQGTQVTVSS”, the “polyreactivity (PSR sort gate)” value was “low polyreactivity”.
For “QVQLVESGGGLVQAGGSLRLSCAASGFTLDQYAMGWYRQAPGKERELVAVITSGGNTYYADSVKGRFTISRDNAKNTVYLQMNSLKPEDTAVYYCAKDVSDPFYDPFEYWGQGTQVTVSS”, the “polyreactivity (PSR sort gate)” value was “low polyreactivity”.
With “QVQLVESGGGLVQAGGSLRLSCAASGFTLDSNALGWYRQAPGKERELVAAISWDDGSTYYADSVKGRFTISRDNAKNTVYLQMNSLKPEDTAVYYCAADASDVYGDRPWFHYYWGYDYWGQGTQVTVSS” the “polyreactivity (PSR sort gate)” value was “low polyreactivity”.
In the case of “QVQLVESGGGLVQAGGSLRLSCAASGFTLFGYAMGWYRQAPGKERELVAAISKDGGSTYYADSVKGRFTISRDNAKNTVYLQMNSLKPEDTAVYSCAARVKRPQTGYDRRYGYWGQGTQVTVSS”, the “polyreactivity (PSR sort gate)” value is reported as “high polyreactivity”.
In the case of “QVQLVESGGGLVQAGGSLRLSCAASGFTLFGYAMGWYRQAPGKERELVAAISKDGGSTYYADTVKGRFTISRDNAKNTVYLQMNSLKPEDTAVYYCAARVKRPQSGYDRRYGYWGQGTQVTVSS”, the “polyreactivity (PSR sort gate)” value is reported as “high polyreactivity”.
With “QVQLVESGGGLVQAGGSLRLSCAASGFTLFYNAMGWYRQAPGKERELVAAITARGGGTYYADSVKGRFTISRDNAKNPVYLQMNSLKPEDTAVYYCAADSFIPPYDHWGQGTQVTVSS” the “polyreactivity (PSR sort gate)” value was “low polyreactivity”.
With “QVQLVESGGGLVQAGGSLRLSCAASGFTLGSNAMGWYRQAPGKERELVAAISWDGGRTYYADSVKGRFTISRDNAKNTVYLQMNSLKPEDTAVYYCNRASYLRGTAGGDYWGQGTQVTVSS” the “polyreactivity (PSR sort gate)” value was “high polyreactivity”.
With “QVQLVESGGGLVQAGGSLRLSCAASGFTLGTYAMGWYRQAPGKERELVASITVTGGSTYYADSVKGRFTISRDNAKNTVYLQMNSLKPEDTAVYYCAASYQHFRSVNPYDSWGQGTQVTVSS” the “polyreactivity (PSR sort gate)” value was “low polyreactivity”.
For “QVQLVESGGGLVQAGGSLRLSCAASGFTLGWYAMGWYRQAPGKERELVAAISRSGGSTYYADSVKGRFTISRDNAKNTVYLQMNSLKPEDTAVYSCAAEVNYAGWAVWSYYWGQGTQVTVSS”, the “polyreactivity (PSR sort gate)” value was “high polyreactivity”.
With “QVQLVESGGGLVQAGGSLRLSCAASGFTLLIYAKGWYRQAPGKERELVAAITWRGSGTYYADSVKGRFTISRDIAKNSVYLQMNSLKPEDTAVYYCAARTARRTYDYWGQGTQVTVSS” the “polyreactivity (PSR sort gate)” value was “low polyreactivity”.
In the case of “QVQLVESGGGLVQAGGSLRLSCAASGFTLNGYAMGWYRQAPGKERELVAAISSSGGRTYYADSVKGRFTISRDNAKNTVYLQMNCLKPEDTAVYYCAAVVYYEDGYWGQGTQVTVSS”, the “polyreactivity (PSR sort gate)” value is reported as “low polyreactivity”.
With “QVQLVESGGGLVQAGGSLRLSCAASGFTLQGYAMGWYRQAPGKERELVAAIRWIGTSTYYADSVKGRFTISRDYAKNTVYFQMNSLKPEDTAVYYCAAYRYNTPFGYWGQGTQVTVSS” the “polyreactivity (PSR sort gate)” value was “high polyreactivity”.
With “QVQLVESGGGLVQAGGSLRLSCAASGFTLQVYDMGWYRQAPGKERELVADISGSGDSTNYADSVKGRFTISRDNAKNTVYLQMNSLKPEDNAVYYCAAEVRGGYYGYDYWGQGTQVTVSS” the “polyreactivity (PSR sort gate)” value was “low polyreactivity”.
With “QVQLVESGGGLVQAGGSLRLSCAASGFTLRAYAMGWYRQAPGKERELVAAISSGGSTYADSVKGRFTISRDNAKNTVYLQMNSLKPEDTAVYYCAADGSKLFYSKFRYVQYGYWGQGTQVTVSS” the “polyreactivity (PSR sort gate)” value was “high polyreactivity”.
In the case of “QVQLVESGGGLVQAGGSLRLSCAASGFTLRAYAMGWYRQAPGKERELVAAITQRGTGTYYADSVKGRFTISRDNAKKTVFLQMNSLKPEDTAVYYCAAEAPRWSNYYYWGQGTQVSVSS”, the “polyreactivity (PSR sort gate)” value is reported as “high polyreactivity”.
In the case of “QVQLVESGGGLVQAGGSLRLSCAASGFTLRLNAMGWYRQAPGKERELVAAITTSDDGTYYADSVKGRFTISRDNAKNSVYLQLNSLKPEDTAVYYCAADYYSVLYDYWGQGTQVTVSS”, the “polyreactivity (PSR sort gate)” value is reported as “low polyreactivity”.
With “QVQLVESGGGLVQAGGSLRLSCAASGFTLRRNAMGWYRQAPGKERELVAAISRGGSTYYADSVKGRFTISRDNAKNTVYLQMNSLKPEDTAVYYCNAGWFKYYPNLQAFNYWGQGTQVTVSS” the “polyreactivity (PSR sort gate)” value was “high polyreactivity”.
With “QVQLVESGGGLVQAGGSLRLSCAASGFTLRYYAMGWYRQAPGKERELVAAITSGGGSTYYADSVKGRFTISRDNAKNTVYLQMNSLKPEDTAVYYCNAQYGSLYYAVVLSNIYNYWGQGTQVTVSS” the “polyreactivity (PSR sort gate)” value was “high polyreactivity”.
In the case of “QVQLVESGGGLVQAGGSLRLSCAASGFTLRYYAMGWYRQAPGKERELVADISWSGGRTYYADSVKGRFTISRDNAKNTVYLQMNSLKPEDTAVYYCAAVRYYAHVYKSVGYDYWGQGTQVTVSS”, the “polyreactivity (PSR sort gate)” value is reported as “high polyreactivity”.
With “QVQLVESGGGLVQAGGSLRLSCAASGFTLTAYAMGWYRQPPGKERELVAAITYTGGSTYYADSVKGRFTISRDNAKNTVYLQMNSLKPEDTAGYYCAAEFLSVPYDYGYWGQGTQVTVSS” the “polyreactivity (PSR sort gate)” value was “high polyreactivity”.
With “QVQLVESGGGLVQAGGSLRLSCAASGFTLTRNAMGCYRQAPGKERELVAAISWSGGTTYYADSVKGRFTISRDNAKNTVYLQMNSLKPEDTAVYYCNTASWRAQYYYWGQGTQVTVSS” the “polyreactivity (PSR sort gate)” value was “high polyreactivity”.
With “QVQLVESGGGLVQAGGSLRLSCAASGFTLVGYAMGWYRQAPGKERELVADINYSGGRTYYADSVKGRFTISRDNAKNTVYLQMNSLNPEDTAVYYCNAAGALSWFYYGYDYWGQGTQVTVSS” the “polyreactivity (PSR sort gate)” value was “low polyreactivity”.
With “QVQLVESGGGLVQAGGSLRLSCAASGFTLVLNAMGWYRQAPGKERELVAAIRRSAGSTYYADSVKGRFTISRDNAKNTVYLQLNSLKPEDTAVYYCAACFLWAKYAYGHWGTFNYWGQGTQVTVSS” the “polyreactivity (PSR sort gate)” value was “low polyreactivity”.
With “QVQLVESGGGLVQAGGSLRLSCAASGFTLWLNAMGWYRQAPGTERELVAAITTSDDGTYYADSVKGRFTISRDNAKNTVYLQMNSLKPEDTAVYYCAADYYSVLYDYWGQGTQVTVSS” the “polyreactivity (PSR sort gate)” value was “low polyreactivity”.
With “QVQLVESGGGLVQAGGSLRLSCAASGFTLYGNVMGWYRQAPGKERELVASISWSGGNTYYADSVKGRFTISRDNAKNTVYLQMNSLKPEDTAVYYCNANYYDKYGYWGQGTQVTVSS” the “polyreactivity (PSR sort gate)” value was “low polyreactivity”.
For “QVQLVESGGGLVQAGGSLRLSCAASGFTLYVYDMGWYRQAHGKERELVAAINGGGSTNYADSVKGRFTISRDNAKNTVYLQMNSLKPEDTAVYYCAAEDAYGRDVYYGSDYWGQGTLVTVSS”, the “polyreactivity (PSR sort gate)” value was “low polyreactivity”.
In the case of “QVQLVESGGGLVQAGGSLRLSCAASGFTLYYYTMGWYRQAPGKERELVAAITSGGDTYYADSVKGRFTISRDNAKNTVYLQMNSLKPEDTAVYYCDAKKKYHYVASYKRFEYWGQGTQVTVSS”, the “polyreactivity (PSR sort gate)” value is reported as “low polyreactivity”.
In the case of “QVQLVESGGGLVQAGGSLRLSCAASGFTMARYAMGSYRQAPGKERELVAAISWSGGSTYYADSVKGRFTISRDNAKNTVYLQMNSLKPEDTAVYYCNAVYATRIGFDYWGQGTQVTVSS”, the “polyreactivity (PSR sort gate)” value is reported as “high polyreactivity”.
In the case of “QVQLVESGGGLVQAGGSLRLSCAASGFTNAMGWYRQAPGKERELVAAISYSGDSTNYADSVKGRFTISRDNAKNTVYLQMKSLKPEDSAVYYCNASSPYDYDWGQGTQVTVSS”, the “polyreactivity (PSR sort gate)” value is reported as “low polyreactivity”.
In the case of “QVQLVESGGGLVQAGGSLRLSCAASGFTSDTNAMGWYRQAAGKERELVAAIDSGGGSTYYADSVKGRFTISRENSKNTVYFQMNSLKPEDTAVYYCNAEQTPFVASLRVGEYGYWGQGTQVTVSS”, the “polyreactivity (PSR sort gate)” value is reported as “low polyreactivity”.
In the case of “QVQLVESGGGLVQAGGSLRLSCAASGFTSRANAMGWYRQAPWKESELVAVITAGGGSTSYADSVKGRFTISRDNAKNTVYLQMNSLKPEDTAVYYCASTWYGGPYKSYYYWGQGTQVTVSS”, the “polyreactivity (PSR sort gate)” value is reported as “low polyreactivity”.
With “QVQLVESGGGLVQAGGSLRLSCAASGFTSRTYAMGWYRQAPGKERELVAAITFSGGSTYYADSVKGRFTISRDNAKNTVYLQMNSLKPEDTAVYYCARDGLWYNAIWEYDYWGQGTQVTVSS” the “polyreactivity (PSR sort gate)” value was “high polyreactivity”.
